In IntAct's records for PubMed 31515488:

How the values were obtained:
[1] = target: hbaz_human HBZ (UniProt P02008)
[2] = target: T1, neca2_human NECAB2 (UniProt Q7Z6G3)
T1 sequence: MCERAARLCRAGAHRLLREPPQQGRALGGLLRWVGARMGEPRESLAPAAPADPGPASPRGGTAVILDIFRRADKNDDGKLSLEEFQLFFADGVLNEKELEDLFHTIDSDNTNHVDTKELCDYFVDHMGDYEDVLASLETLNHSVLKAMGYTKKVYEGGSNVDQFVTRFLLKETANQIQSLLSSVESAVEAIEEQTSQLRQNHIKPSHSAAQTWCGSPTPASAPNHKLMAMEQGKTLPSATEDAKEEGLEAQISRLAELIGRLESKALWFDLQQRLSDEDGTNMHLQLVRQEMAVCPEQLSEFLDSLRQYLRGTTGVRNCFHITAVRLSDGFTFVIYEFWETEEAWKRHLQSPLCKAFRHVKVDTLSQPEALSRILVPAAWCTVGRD

[3] = target: T2, magd1_human MAGED1 (UniProt Q9Y5V3)
T2 sequence: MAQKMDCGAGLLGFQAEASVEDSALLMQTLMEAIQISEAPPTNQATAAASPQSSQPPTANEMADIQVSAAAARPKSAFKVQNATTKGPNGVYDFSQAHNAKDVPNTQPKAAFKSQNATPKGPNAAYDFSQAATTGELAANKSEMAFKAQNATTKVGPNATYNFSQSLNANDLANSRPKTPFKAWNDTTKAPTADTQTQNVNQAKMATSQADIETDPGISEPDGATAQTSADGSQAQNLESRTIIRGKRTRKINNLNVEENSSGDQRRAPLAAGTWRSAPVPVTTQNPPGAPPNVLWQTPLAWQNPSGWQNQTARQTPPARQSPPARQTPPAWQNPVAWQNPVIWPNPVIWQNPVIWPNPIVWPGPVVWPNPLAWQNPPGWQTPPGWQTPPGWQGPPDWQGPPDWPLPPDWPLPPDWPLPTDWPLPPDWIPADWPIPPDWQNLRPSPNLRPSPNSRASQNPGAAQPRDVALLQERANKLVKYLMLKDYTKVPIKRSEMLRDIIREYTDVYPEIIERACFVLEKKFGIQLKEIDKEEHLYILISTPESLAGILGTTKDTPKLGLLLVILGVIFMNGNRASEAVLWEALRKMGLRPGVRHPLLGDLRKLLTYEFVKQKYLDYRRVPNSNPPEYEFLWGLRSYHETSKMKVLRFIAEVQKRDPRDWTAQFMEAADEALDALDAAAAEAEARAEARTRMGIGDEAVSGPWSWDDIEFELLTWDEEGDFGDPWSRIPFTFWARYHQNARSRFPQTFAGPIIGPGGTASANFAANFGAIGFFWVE

[4] = target: nmna1_human NMNAT1 (UniProt Q9HAN9)
[5] = target: T3, srtd3_human SERTAD3 (UniProt Q9UJW9)
T3 sequence: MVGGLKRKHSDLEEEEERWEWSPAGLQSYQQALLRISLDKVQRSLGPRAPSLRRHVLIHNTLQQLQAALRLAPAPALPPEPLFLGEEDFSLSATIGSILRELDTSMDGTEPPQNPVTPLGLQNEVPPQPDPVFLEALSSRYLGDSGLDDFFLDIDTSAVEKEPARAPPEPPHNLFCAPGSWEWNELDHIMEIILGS

[6] = target: mlh1_human MLH1 (UniProt P40692)
[7] = target: vps29_human VPS29 (UniProt Q9UBQ0)
[8] = target: klhl2_human KLHL2 (UniProt O95198)
[9] = target: inca1_human INCA1 (UniProt Q0VD86)
[10] = target: itf2_human TCF4 (UniProt P15884)
[11] = target: cep76_human CEP76 (UniProt Q8TAP6)
[12] = target: tcl1a_human TCL1A (UniProt P56279)
[13] = target: traf1_human TRAF1 (UniProt Q13077)

For “Hemoglobin subunit beta (Homo sapiens), P68871 F123S”, the “effect of a mutation on the interaction” value [1] was “disrupting interaction strength”.
With “Importin subunit alpha-1 (Homo sapiens) (from UniProt P52292) V506I” the “effect of a mutation on the interaction” value [2] was “with no effect”, the “effect of a mutation on the interaction” value [3] was “with no effect” and the “effect of a mutation on the interaction” value [4] was “with no effect”. For the same substance, the “effect of a mutation on the interaction” value [5] was “with no effect”.
For “Importin subunit alpha-1 (Homo sapiens) (from UniProt P52292) R117W”, the “effect of a mutation on the interaction” value [2] was “with no effect”, the “effect of a mutation on the interaction” value [3] was “with no effect” and the “effect of a mutation on the interaction” value [4] was “with no effect”. For the same substance, the “effect of a mutation on the interaction” value [5] was “with no effect” and the “effect of a mutation on the interaction” value [6] was “with no effect”.
“Vacuolar protein sorting-associated protein 35 (Homo sapiens) (from UniProt Q96QK1) L227F” was tested, and the “effect of a mutation on the interaction” value [7] was “with no effect”.
With “Hemoglobin subunit beta (Homo sapiens), P68871 D100Y” the “effect of a mutation on the interaction” value [1] was “disrupting interaction strength”.
With “Hemoglobin subunit beta (Homo sapiens), P68871 S10C” the “effect of a mutation on the interaction” value [1] was “disrupting interaction strength”.
“Zinc finger protein 114 (Homo sapiens), Q8NC26 D61V” was tested, and the “effect of a mutation on the interaction” value [8] was “with no effect”.
For “Calcium-binding protein 5 (Homo sapiens), Q9NP86 R44Q”, the “effect of a mutation on the interaction” value [9] was “with no effect”, the “effect of a mutation on the interaction” value [10] was “with no effect” and the “effect of a mutation on the interaction” value [11] was “with no effect”.
In the case of “"DNA (cytosine-5)-methyltransferase 3A" (Homo sapiens) (from UniProt Q9Y6K1) N501S”, the “effect of a mutation on the interaction” value [12] is reported as “with no effect”.
In the case of “Importin subunit alpha-1 (Homo sapiens) (from UniProt P52292) N86S”, the “effect of a mutation on the interaction” value [2] is reported as “with no effect”, the “effect of a mutation on the interaction” value [3] is reported as “with no effect” and the “effect of a mutation on the interaction” value [4] is reported as “with no effect”. For the same substance, the “effect of a mutation on the interaction” value [5] was “with no effect” and the “effect of a mutation on the interaction” value [6] was “with no effect”.
For “"DNA (cytosine-5)-methyltransferase 3A" (Homo sapiens) (from UniProt Q9Y6K1) E30A”, the “effect of a mutation on the interaction” value [12] was “with no effect”.
For “Vacuolar protein sorting-associated protein 35 (Homo sapiens) (from UniProt Q96QK1) D620N”, the “effect of a mutation on the interaction” value [7] was “with no effect”.
For “Calcium-binding protein 5 (Homo sapiens), Q9NP86 V128A”, the “effect of a mutation on the interaction” value [9] was “with no effect”, the “effect of a mutation on the interaction” value [10] was “with no effect” and the “effect of a mutation on the interaction” value [11] was “with no effect”.
In the case of “Zinc finger protein 502 (Homo sapiens), Q8TBZ5 Q174R”, the “effect of a mutation on the interaction” value [13] is reported as “with no effect”.
In the case of “Zinc finger protein 502 (Homo sapiens), Q8TBZ5 E243A”, the “effect of a mutation on the interaction” value [13] is reported as “with no effect”.
“Hemoglobin subunit beta (Homo sapiens), P68871 T88P” was tested, and the “effect of a mutation on the interaction” value [1] was “disrupting interaction strength”.
In the case of “Hemoglobin subunit beta (Homo sapiens), P68871 E122V”, the “effect of a mutation on the interaction” value [1] is reported as “disrupting interaction strength”.
For “Hemoglobin subunit beta (Homo sapiens), P68871 P101A”, the “effect of a mutation on the interaction” value [1] was “disrupting interaction strength”.
“Zinc finger protein 114 (Homo sapiens), Q8NC26 H99N” was tested, and the “effect of a mutation on the interaction” value [8] was “with no effect”.
“Hemoglobin subunit beta (Homo sapiens), P68871 V127G” was tested, and the “effect of a mutation on the interaction” value [1] was “disrupting interaction strength”.
